{"source": "paper PMC4551919", "about": "(Nucleic Acids Research, 2015)", "assay_in_all_cases": "MST", "key": {"[1]": {"target": "SMG-1–9 complex (human | , UniProt Q96Q15;Q9H0W8)"}, "[2]": {"target": "SMG-1ΔC-8–9 complex (human | , UniProt Q96Q15;Q8ND04;Q9H0W8, deleted from the residues 2442 to 3591)"}, "[3]": {"target": "SMG-1–8–9 complex (human | , UniProt Q96Q15;Q8ND04;Q9H0W8)"}, "[4]": {"target": "SMG-1, full length, SBP-tagged (human, UniProt Q96Q15 1-3661)"}}, "data": [{"binder": "UPF1, full length, fluorescently labeled with NT-547 (natural protein, NT-547 dye on amines, on average one fluorescent moiety per UPF1 molecule) MSVEAYGPSSQTLTFLDTEEAELLGADTQGSEFEFTDFTLPSQTQTPPGGPGGPGGGGAGGPGGAGAGAAAGQLDAQVGPEGILQNGAVDDSVAKTSQLLAELNFEEDEEDTYYTKDLPIHACSYCGIHDPACVVYCNTSKKWFCNGRGNTSGSHIVNHLVRAKCKEVTLHKDGPLGETVLECYNCGCRNVFLLGFIPAKADSVVVLLCRQPCASQSSLKDINWDSSQWQPLIQDRCFLSWLVKIPSEQEQLRARQITAQQINKLEELWKENPSATLEDLEKPGVDEEPQHVLLRYEDAYQYQNIFGPLVKLEADYDKKLKESQTQDNITVRWDLGLNKKRIAYFTLPKTDSGNEDLVIIWLRDMRLMQGDEICLRYKGDLAPLWKGIGHVIKVPDNYGDEIAIELRSSVGAPVEVTHNFQVDFVWKSTSFDRMQSALKTFAVDETSVSGYIYHKLLGHEVEDVIIKCQLPKRFTAQGLPDLNHSQVYAVKTVLQRPLSLIQGPPGTGKTVTSATIVYHLARQGNGPVLVCAPSNIAVDQLTEKIHQTGLKVVRLCAKSREAIDSPVSFLALHNQIRNMDSMPELQKLQQLKDETGELSSADEKRYRALKRTAERELLMNADVICCTCVGAGDPRLAKMQFRSILIDESTQATEPECMVPVVLGAKQLILVGDHCQLGPVVMCKKAAKAGLSQSLFERLVVLGIRPIRLQVQYRMHPALSAFPSNIFYEGSLQNGVTAADRVKKGFDFQWPQPDKPMFFYVTQGQEEIASSGTSYLNRTEAANVEKITTKLLKAGAKPDQIGIITPYEGQRSYLVQYMQFSGSLHTKLYQEVEIASVDAFQGREKDFIILSCVRANEHQGIGFLNDPRRLNVALTRARYGVIIVGNPKALSKQPLWNHLLNYYKEQKVLVEGPLNNLRESLMQFSKPRKLVNTINPGARFMTTAMYDAREAIIPGSVYDRSSQGRPSSMYFQTHDQIGMISAGPSHVAAMNIPIPFNLVMPPMPPPGYFGQANGPAAGRGTPKGKTGRGGRQKNRFGLPGPSQTNLPNSQASQDVASQPFSQGALTQGYISMSQPSQMSQPGLSQPELSQDSYLGDEFKSQIDVALSQDSTYQGERAYQHGGVTGLSQY", "values": [{"measurement": "Kd", "setting": "[1]", "result": 56, "unit": "nM"}, {"measurement": "Kd", "setting": "[2]", "result": 221, "unit": "nM"}, {"measurement": "Kd", "setting": "[3]", "result": 38, "unit": "nM"}, {"measurement": "Kd", "setting": "[4]", "result": 75, "unit": "nM"}]}]}
